Patent publication US20150024459A1

How the values were obtained:
[1] = target: IGF-1R on human cancer cell lines (human) (UniProt P08069); test: 125I-IGF-1 binding to MCF-7L cells; antibody at 100 ng/mL
[2] = target: IGF-1R on human cancer cell lines (human) (UniProt P08069); test: cell-based or functional assay
[3] = target: IGF-1R on human cancer cell lines (human) (UniProt P08069); test: 125I-IGF-1 binding to MCF-7L cells; antibody at 1000 ng/mL
[4] = target: IGF-1R and EGP-1 together on MCF-7, DU145 or ME-180 cells (human) (UniProt P08069); test: flow cytometry (FACScan), DU145 cells; control
[5] = target: IGF-1R and EGP-1 together on MCF-7, DU145 or ME-180 cells (human) (UniProt P08069); test: flow cytometry (FACScan), ME-180 cells; control
[6] = target: IGF-1R and EGP-1 together on MCF-7, DU145 or ME-180 cells (human) (UniProt P08069); test: flow cytometry (FACScan), MCF-7 cells; control

Row | Substance | % binding of 125I-IGF-1 in the presence of the antibody [1] [%] | maximum growth inhibition, 786-O cells, serum-free with IGF-1 100 ng/mL, MTS, antibody 8 nM [2] [%] | maximum growth inhibition, ACHN cells, serum-free with IGF-1 100 ng/mL, MTS, antibody 200 nM [2] [%] | maximum growth inhibition, Caki-2 cells, serum-free with IGF-1 100 ng/mL, MTS, antibody 8 nM [2] [%] | % binding of 125I-IGF-1 in the presence of the antibody [3] [%] | % Positive [4] [%] | MFI [4] | % Positive [5] [%] | MFI [5] | % Positive [6] [%] | MFI [6]
1 | MAB391 (antibody) | 54 | 34 | 48 | 50 | 38 | – | – | – | – | – | –
2 | human IgG (antibody) | – | – | – | – | – | 1.44 | 2.21 | 1.37 | 1.8 | 2.34 | 1.84
